# Results reported in US20210388087A1 (Chugai, published 2021).
# Residue numbers refer to the chain shown, from its start.
# B1: H183/L072 VL N30Y (antibody, name in Kabat numbering, V domains shown)
# VH: QVQLVESGGGLVQPGRSLRLSCAASGFTFSNAWMHWVRQAPGKGLEWVAQIKDKGNAYAAYYAPSVKGRFTISRDDSKNSIYLQMNSLKTEDTAVYYCHYVHYASASTVLPAFGVDAWGQGTTVTVSS
# VL: DIVMTQSPLSLPVTPGEPASISCQASQELVHMNRYTYLHWYQQKPGQAPRLLIYKVSNRFPGVPDRFSGSGSGTDFTLKISRVEAEDVGVYYCAQGTSVPFTFGQGTKLEIK
# notes: Dual-Ig
# B2: H183/L072 VL P95E (antibody, name in Kabat numbering, V domains shown)
# VH: B1 VH
# VL: B1 VL with Y35N, P100E
# notes: Dual-Ig
# B3: H183/L072 VL N53P (antibody, name in Kabat numbering, V domains shown)
# VH: B1 VH
# VL: B1 VL with Y35N, N58P
# notes: Dual-Ig
# B4: H183/L072 VL P56N (antibody, name in Kabat numbering, V domains shown)
# VH: B1 VH
# VL: B1 VL with Y35N, P61N
# notes: Dual-Ig
# B5: H183/L072 VL P56I (antibody, name in Kabat numbering, V domains shown)
# VH: B1 VH
# VL: B1 VL with Y35N, P61I
# notes: Dual-Ig
# B6: H183/L072 VL P56D (antibody, name in Kabat numbering, V domains shown)
# VH: B1 VH
# VL: B1 VL with Y35N, P61D
# notes: Dual-Ig
# B7: H183/L072 VL P95H (antibody, name in Kabat numbering, V domains shown)
# VH: B1 VH
# VL: B1 VL with Y35N, P100H
# notes: Dual-Ig
# B8: H183/L072 VL P95A (antibody, name in Kabat numbering, V domains shown)
# VH: B1 VH
# VL: B1 VL with Y35N, P100A
# notes: Dual-Ig
# B9: H183/L072 VL P95F (antibody, name in Kabat numbering, V domains shown)
# VH: B1 VH
# VL: B1 VL with Y35N, P100F
# notes: Dual-Ig
# B10: H183/L072 VL N53S (antibody, name in Kabat numbering, V domains shown)
# VH: B1 VH
# VL: B1 VL with Y35N, N58S
# notes: Dual-Ig
# B11: H183/L072 VL P56F (antibody, name in Kabat numbering, V domains shown)
# VH: B1 VH
# VL: B1 VL with Y35N, P61F
# notes: Dual-Ig
# B12: H183/L072 VL N53I (antibody, name in Kabat numbering, V domains shown)
# VH: B1 VH
# VL: B1 VL with Y35N, N58I
# notes: Dual-Ig
# B13: H183/L072 VL P95I (antibody, name in Kabat numbering, V domains shown)
# VH: B1 VH
# VL: B1 VL with Y35N, P100I
# notes: Dual-Ig
# B14: H183/L072 VL N53F (antibody, name in Kabat numbering, V domains shown)
# VH: B1 VH
# VL: B1 VL with Y35N, N58F
# notes: Dual-Ig
# B15: H183/L072 VL N53E (antibody, name in Kabat numbering, V domains shown)
# VH: B1 VH
# VL: B1 VL with Y35N, N58E
# notes: Dual-Ig
# B16: H183/L072 VL P56M (antibody, name in Kabat numbering, V domains shown)
# VH: B1 VH
# VL: B1 VL with Y35N, P61M
# notes: Dual-Ig
# B17: H183/L072 VL P95L (antibody, name in Kabat numbering, V domains shown)
# VH: B1 VH
# VL: B1 VL with Y35N, P100L
# notes: Dual-Ig
# B18: H183/L072 VL N53R (antibody, name in Kabat numbering, V domains shown)
# VH: B1 VH
# VL: B1 VL with Y35N, N58R
# notes: Dual-Ig
# B19: H183/L072 VL N53D (antibody, name in Kabat numbering, V domains shown)
# VH: B1 VH
# VL: B1 VL with Y35N, N58D
# notes: Dual-Ig
# B20: H183/L072 VL N53H (antibody, name in Kabat numbering, V domains shown)
# VH: B1 VH
# VL: B1 VL with Y35N, N58H
# notes: Dual-Ig
# B21: H183/L072 VL P56W (antibody, name in Kabat numbering, V domains shown)
# VH: B1 VH
# VL: B1 VL with Y35N, P61W
# notes: Dual-Ig
# B22: H183/L072 VL N53A (antibody, name in Kabat numbering, V domains shown)
# VH: B1 VH
# VL: B1 VL with Y35N, N58A
# notes: Dual-Ig
# B23: H183/L072 VL N53V (antibody, name in Kabat numbering, V domains shown)
# VH: B1 VH
# VL: B1 VL with Y35N, N58V
# notes: Dual-Ig
# B24: H183/L072 VL P95G (antibody, name in Kabat numbering, V domains shown)
# VH: B1 VH
# VL: B1 VL with Y35N, P100G
# notes: Dual-Ig
# B25: H183/L072 VL P95D (antibody, name in Kabat numbering, V domains shown)
# VH: B1 VH
# VL: B1 VL with Y35N, P100D
# notes: Dual-Ig
# B26: H183/L072 VL P56Q (antibody, name in Kabat numbering, V domains shown)
# VH: B1 VH
# VL: B1 VL with Y35N, P61Q
# notes: Dual-Ig
# B27: H183/L072 VL P56T (antibody, name in Kabat numbering, V domains shown)
# VH: B1 VH
# VL: B1 VL with Y35N, P61T
# notes: Dual-Ig
# B28: H183/L072 VL P56H (antibody, name in Kabat numbering, V domains shown)
# VH: B1 VH
# VL: B1 VL with Y35N, P61H
# notes: Dual-Ig
# B29: H183/L072 VL P56K (antibody, name in Kabat numbering, V domains shown)
# VH: B1 VH
# VL: B1 VL with Y35N, P61K
# notes: Dual-Ig
# B30: H183/L072 VL P56A (antibody, name in Kabat numbering, V domains shown)
# VH: B1 VH
# VL: B1 VL with Y35N, P61A
# notes: Dual-Ig
# B31: H183/L072 VL N53L (antibody, name in Kabat numbering, V domains shown)
# VH: B1 VH
# VL: B1 VL with Y35N, N58L
# notes: Dual-Ig
# B32: H183/L072 VL P56G (antibody, name in Kabat numbering, V domains shown)
# VH: B1 VH
# VL: B1 VL with Y35N, P61G
# notes: Dual-Ig
# B33: H183/L072 VL N53W (antibody, name in Kabat numbering, V domains shown)
# VH: B1 VH
# VL: B1 VL with Y35N, N58W
# notes: Dual-Ig
# B34: H183/L072 VL N53T (antibody, name in Kabat numbering, V domains shown)
# VH: B1 VH
# VL: B1 VL with Y35N, N58T
# notes: Dual-Ig
# B35: H183/L072 VL P56E (antibody, name in Kabat numbering, V domains shown)
# VH: B1 VH
# VL: B1 VL with Y35N, P61E
# notes: Dual-Ig
# B36: H183/L072 VL N53M (antibody, name in Kabat numbering, V domains shown)
# VH: B1 VH
# VL: B1 VL with Y35N, N58M
# notes: Dual-Ig
# B37: H183/L072 VL N53Q (antibody, name in Kabat numbering, V domains shown)
# VH: B1 VH
# VL: B1 VL with Y35N, N58Q
# notes: Dual-Ig
# B38: H183/L072 VL N53G (antibody, name in Kabat numbering, V domains shown)
# VH: B1 VH
# VL: B1 VL with Y35N, N58G
# notes: Dual-Ig
# B39: H183/L072 VL P56S (antibody, name in Kabat numbering, V domains shown)
# VH: B1 VH
# VL: B1 VL with Y35N, P61S
# notes: Dual-Ig
# B40: H183/L072 VL P56V (antibody, name in Kabat numbering, V domains shown)
# VH: B1 VH
# VL: B1 VL with Y35N, P61V
# notes: Dual-Ig
# B41: H183/L072 VL N53K (antibody, name in Kabat numbering, V domains shown)
# VH: B1 VH
# VL: B1 VL with Y35N, N58K
# notes: Dual-Ig
# B42: H183/L072 VL P95K (antibody, name in Kabat numbering, V domains shown)
# VH: B1 VH
# VL: B1 VL with Y35N, P100K
# notes: Dual-Ig
# B43: H183/L072 VL P56L (antibody, name in Kabat numbering, V domains shown)
# VH: B1 VH
# VL: B1 VL with Y35N, P61L
# notes: Dual-Ig
# B44: H183/L072 VL P56R (antibody, name in Kabat numbering, V domains shown)
# VH: B1 VH
# VL: B1 VL with Y35N, P61R
# notes: Dual-Ig
# Target: T1, Human CD137 ECD (human)
# T1 construct: entry includes C-terminal His-tag and biotin acceptor peptide; also called human CD137 extracellular domain; 4-1BB
# T1 sequence (chain, as listed by the source limits assumed): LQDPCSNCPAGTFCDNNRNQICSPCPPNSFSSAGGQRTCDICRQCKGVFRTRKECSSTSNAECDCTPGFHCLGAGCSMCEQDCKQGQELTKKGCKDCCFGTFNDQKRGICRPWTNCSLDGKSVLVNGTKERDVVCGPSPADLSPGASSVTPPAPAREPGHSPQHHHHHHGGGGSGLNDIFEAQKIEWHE
# Test: Biacore SPR, vs parent H183/L072
row,Binder,fold change of affinity [fold]
1,B1,0.6
2,B2,0
3,B3,0
4,B4,0.2
5,B5,0.1
6,B6,0.2
7,B7,0
8,B8,0
9,B9,0
10,B10,0.5
11,B11,0
12,B12,0.2
13,B13,0
14,B14,0.3
15,B15,0.2
16,B16,0.2
17,B17,0
18,B18,0.3
19,B19,0.3
20,B20,0.5
21,B21,0
22,B22,0.7

row,Binder,fold change of affinity [fold]
1,B23,0.5
2,B24,0
3,B25,0
4,B26,0.2
5,B27,0.2
6,B28,0
7,B29,0
8,B30,0.1
9,B31,0.2
10,B32,0.1
11,B33,0
12,B34,0
13,B35,0.1
14,B36,0.1
15,B37,0.4
16,B38,0.6
17,B39,0.1
18,B40,0
19,B41,0.2
20,B42,0
21,B43,0.1
22,B44,0
